{"source": "the nanobody polyreactivity screen of Harvey et al. (2022)", "data": [{"assay": "yeast display, Sf9 membrane polyspecificity reagent, FACS + sequencing; frameworks hold sequencing errors", "summary_of_the_method": "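Polyreactivity labels are assigned by the sorting gate from which each nanobody was recovered. The gates were low and high (top ~1%), set on anti-HA fluorescence for expression and streptavidin fluorescence for reagent binding. Before sorting, galactose-induced (36–48 hours) yeast display cells were stained for 1 hour at 4 °C with 10% biotinylated, detergent-solubilized Sf9 membrane reagent.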", "values": [{"sequence": "QVQLVESGGGLVQAGGSLRVSCAASGLTFSVYTRGWYRQAPGKERELVAAITTSGGRTYYADSVKGRFTISRDNAKNTVYLQMNSLKPEDTAVYYCAAVRTGDTTGTMGYWGQGTQVTVSS", "polyreactivity (PSR sort gate)": "high polyreactivity"}, {"sequence": "QVQLVESGGGLVQAGGSLRVSCAASGNSFTGYVMGWYRQAPGKERELVAAIRSGGSTYYADSVKGRFRISRDNAKNTVYLQMTSLKPEDTAVYYCNARYRYRLRGYDYWGQGTQVTVSS", "polyreactivity (PSR sort gate)": "high polyreactivity"}, {"sequence": "QVQLVESGGGLVQAGGSLRVSCAASGRIFGYNAMGWSRQAPVKERELDAAIRGGGSTYYADSVKGRFTISRDNAKHSVYLQMYSLKPEDTAVYYCAATSYTYVLSPYRGDYWGQGTQVTVSS", "polyreactivity (PSR sort gate)": "high polyreactivity"}, {"sequence": "QVQLVESGGGLVQAGGSLRVSCAASGRTFARYAKGWYRQAPGKERELVAVISRTGSTYYADSVKGRFTISRDNAKNTVYLQMNSLKPEDTAVYYCATVYYYLAYGWSYSDMDYWGQGTQVTVSS", "polyreactivity (PSR sort gate)": "high polyreactivity"}, {"sequence": "QVQLVESGGGLVQAGGSLRVSCAASGRTFDSYAMGWYRQAPGKEREFVAAISYSGTSTYYADSVKGRFTISRDNAKNTVYLQMNSLKPEDTAVYYCNAARETRPRDYYWGQGTQVTVSS", "polyreactivity (PSR sort gate)": "low polyreactivity"}, {"sequence": "QVQLVESGGGLVQAGGSLRVSCAASGSIFKNNPMGWYRQAPGKERELVDANRYSGGRTYYAHSVKGRFTISRDHAKNTVYIQMNSLKPEVTAVYDCAAGSIQYRPTYTGDYWGQGSQVTVSS", "polyreactivity (PSR sort gate)": "high polyreactivity"}, {"sequence": "QVQLVESGGGLVQAGGSLRVSCAASGSIFRFNVMGWYRQAPGKERELVAAITRGDSTNYADSVKGRFTISRDNAKNTVYLQMNSLKPEDTAVYYCAAGYYYYLRDHDYWGQGTQVTVSS", "polyreactivity (PSR sort gate)": "low polyreactivity"}, {"sequence": "QVQLVESGGGLVQAGGSLRVSCAASGSIFYYAMGWYRQAPGKERELVASIRSGGSTKFADSVKGRFTISRDNAKNTVYLQMNSLKPEDTAVYYCAARGVIRYTYKSTPYDYWGQGTQVTVSS", "polyreactivity (PSR sort gate)": "high polyreactivity"}, {"sequence": "QVQLVESGGGLVQAGGSLRVSCAASGSTFCSNAKGWYRQAPGKERELVAAISSGGSTNYADSVKGRFTISRDNAKNTVYLQMYSLKPEDTAVYYCAADRSPEYYWGQGTQVTVSS", "polyreactivity (PSR sort gate)": "low polyreactivity"}, {"sequence": "QVQLVESGGGLVQAGGSLRVSCAASGSTFGTYGMGWYRPAPGKERELVADITSGGSTYYADSVKGRFTISRDNAKNTVYLQMNSLTPEDTAVYYCAASWFVWSTAVPYDYWGQGTQVTVSS", "polyreactivity (PSR sort gate)": "low polyreactivity"}, {"sequence": "QVQLVESGGGLVQAGGSLRVSCAASGSTFGYYAMGWYREAPGKEREFVAAINYGDGNTYYADSVKGRFTISRDNAKNTVYLQMNRLKPEDTAVYYCATYYWAPTGAHGGYGYWVQGTQVTVSS", "polyreactivity (PSR sort gate)": "low polyreactivity"}, {"sequence": "QVQLVESGGGLVQAGGSLRVSCAASGSTFSAYAMGWYRPAPGKERELVAAISASGGSTYYADSVKGRFTISRDNAKNTVSLQMNSLKPEDTAVYYCNADRWKYELDYWGQGTQVTVSS", "polyreactivity (PSR sort gate)": "high polyreactivity"}, {"sequence": "QVQLVESGGGLVQAGGSLRVSCAASGSTFVGNAMGWYRQEPGKERELVADITSGGSTNYADSVKGRFTISRDNAKNTVYLQMKSLKPEDTAVYYFAAVYLCSQRREFWGQGTQVTVSS", "polyreactivity (PSR sort gate)": "low polyreactivity"}, {"sequence": "QVQLVESGGGLVQAGGSLRVSCAPSGIIFGGNVMGWYRQAPGKERELVAGITSTGGRTYYADSVKGRFTISRDNAKNTVYLQMNSLKPEDTAVYYCAAVSTLVRGNFNRIRYGYWGHGTQVTVSS", "polyreactivity (PSR sort gate)": "high polyreactivity"}, {"sequence": "QVQLVESGGGLVQAGGSLRVSCASSGSIFLDNAMEWYRQAPGKERELVAAISYGDGSTYYADSVKGRITISRDNAKNTVYLQMNRLKPEDTAVYYCAAERYTIPPIYDYWGQGTQVTVSS", "polyreactivity (PSR sort gate)": "low polyreactivity"}, {"sequence": "QVQLVESGGGLVQAGGSLRVSCGASGRTFLFYAMGWYRQAPGKERELVASITGRGGRTSYADSEKGRFTISRDNAKNTVYLQKNSLKPEDTAVYYCAARNPYTSTYYDWGQGTQETVSS", "polyreactivity (PSR sort gate)": "high polyreactivity"}, {"sequence": "QVQLVESGGGLVQAGGSLSIICAASGFTFRYYAMGWYREAPGKERELVAAISKSGTSTYYADSVKGRFTISRDNAKNTVYLQMNSLKPEDTAVYYCAARRGRRYYYWGQGTQVTVSS", "polyreactivity (PSR sort gate)": "high polyreactivity"}, {"sequence": "QVQLVESGGGLVQAGGSLSISCAASGSIFLAYDMGWYRPAPGKARELVAAITAGTGSTYYADSVKGRFTISRDNAKNTVYLQMTSLKPDDTAVYYCAAELWGGTYGEYEYWGQGTQVTVSS", "polyreactivity (PSR sort gate)": "low polyreactivity"}, {"sequence": "QVQLVESGGGLVQAGGSLSLICAASGFIFLYYAMGWYRQAPGKERELVADISRGADTKYADSVKGRFTISRDNAKNTVYLQMNSLKPEDTAVYYCATDITTFWFPYPGVELGYWGQGTQVTVSS", "polyreactivity (PSR sort gate)": "low polyreactivity"}, {"sequence": "QVQLVESGGGLVQAGGSLSLICAASRRSFYHYTMGWSRQAPGKERELVAAMTSGGSTYYADSVKGRFTISRDNAKNTVYLQMNSLKPEDTAVYYCARVRPLYDYSRYDYWGQRTQVTVSS", "polyreactivity (PSR sort gate)": "high polyreactivity"}, {"sequence": "QVQLVESGGGLVQAGGSLSLSCAASGFIFYRYAMGWYRQAPGKERELVAAITSGGSTKYADSVKGRFTISRDNAKNTVYLQMNSLKPEYTAVYYCAADPFDWFSYYYWGQGTQVTVSS", "polyreactivity (PSR sort gate)": "low polyreactivity"}, {"sequence": "QVQLVESGGGLVQAGGSLSLSCAASGFILDFNSLGWYRQAPGKERELVAAISISGVSTYYADSVKGRFTISRDNAKNTVYLQMHSLKPEDTAVYYGAAAQVAAVYWRPGGYDYWGQGTQVTVSS", "polyreactivity (PSR sort gate)": "low polyreactivity"}, {"sequence": "QVQLVESGGGLVQAGGSLSLSCAASGFISASNVMGWYRHAPGKERELVAAINWSGDNTYYADSVKWRFTISRDTAKNTVYLLMNSLKAEDTAVYYCNDDVYSYATPEMDYWGQGTQVTVSS", "polyreactivity (PSR sort gate)": "low polyreactivity"}, {"sequence": "QVQLVESGGGLVQAGGSLSLSCAASGFTFSWNAMGWYSQAPGKERELVATITRSGSTYYADSVKGRFTISRDNSKNTVYLQMNSLKPEDTAVYYCAVVSWYRYSRYVNDYWGQGTQVTVSS", "polyreactivity (PSR sort gate)": "high polyreactivity"}, {"sequence": "QVQLVESGGGLVQAGGSLSLSCAASGGIFQVNSMGWYRQATGKEREVLAAISWSVGRTYYADSVKGRFTISRDNAKNTVYLQMNSLKPEDTAVYYCARYGKRGYYYWGQGTQVTVSS", "polyreactivity (PSR sort gate)": "low polyreactivity"}, {"sequence": "QVQLVESGGGLVQAGGSLSLSCAASGITFGLYAMGWYRQATGKERELVAAITSGDRTYYADSVKGRFTISRDNAKNTVYLQMISLTPEDTAVNYCNAEAWWVYYYYGTYLAGSYYWGQGTQVTVSS", "polyreactivity (PSR sort gate)": "high polyreactivity"}, {"sequence": "QVQLVESGGGLVQAGGSLSLSCAASGITFIHNAMGLYIQAPGKERELVAAITPSDGSTYYADSVKGRFTISRDNAKNTVFLQMNSLKPEDTAVYYCAARGRHSGYYSVPYYYWGQGTQVTVSS", "polyreactivity (PSR sort gate)": "low polyreactivity"}, {"sequence": "QVQLVESGGGLVQAGGSLSLSCAASGITFSYYAMGWYRQAPGNERELVASINFSGGSTSYADSVKGRFTISRDNAKITVYFQMNSLKPEDPAVYYCAAQIWSKDEKHDYWGQGTKVTVSS", "polyreactivity (PSR sort gate)": "high polyreactivity"}, {"sequence": "QVQLVESGGGLVQAGGSLSLSCAASGLIFYYYAMGWYRQAPGKERELVAAITRGGRTYYADSVKGRFTISRDNAKNTVYLQMNSLKPEDTAVYYCAAVTRVYGKTMGYWGQGTQVTVSS", "polyreactivity (PSR sort gate)": "high polyreactivity"}, {"sequence": "QVQLVESGGGLVQAGGSLSLSCAASGLTFSAYAMGWYRQAPGKERELVAAISSGVSTNYADSVKGRFTISRDNAKNSVYLQMNSLKPEDTAVYYCKAEYWGAYEYWGQGTQVTVSS", "polyreactivity (PSR sort gate)": "high polyreactivity"}, {"sequence": "QVQLVESGGGLVQAGGSLSLSCAASGLTSSENAMGWYRQAHGKERELVAAINVSGGSTYYADSVKGRFTISRDNAKNTVYLQMNSLKPEDTAVYYCAADNPYAYARSSWYEYNYWGQGTQVTVSS", "polyreactivity (PSR sort gate)": "high polyreactivity"}, {"sequence": "QVQLVESGGGLVQAGGSLSLSCAASGRIFAGYAMGWYRQAPGKERELVAVISSRGGRTYYADSVKGRFTISRDNAKNTVYLQMNSLKPEDTAVYYCNRVFSYQYKRDYWGQGTQVTVSS", "polyreactivity (PSR sort gate)": "high polyreactivity"}, {"sequence": "QVQLVESGGGLVQAGGSLSLSCAASGRIFTQYAMGWSRQAPGKERELVTAINASDGSTYADSVKGRFTISRDNAKNTVYLQMNCLIPEDTAVYYCNVTGGPYDFTRWSEFDHWGQGTQVTVSS", "polyreactivity (PSR sort gate)": "low polyreactivity"}, {"sequence": "QVQLVESGGGLVQAGGSLSLSCAASGRILYSYAMGWYRQAPGKERELVASISLSGGRTYADSVKGRFTISRDNAKNTVYLQMNSLKPEDTAVYYCNARIRTSRYLWPFDYWGQGTQVTVSS", "polyreactivity (PSR sort gate)": "high polyreactivity"}, {"sequence": "QVQLVESGGGLVQAGGSLSLSCAASGRTFGLNVMGWYRQAPGKERELVATISGVGSTNYADSVKWRFTISRDNAKNTVYLQMNSLKPEDTAVYYCAKDPHVGRWWDLYSPYYSWGQGTQVTVSS", "polyreactivity (PSR sort gate)": "low polyreactivity"}, {"sequence": "QVQLVESGGGLVQAGGSLSLSCAASGRTFIRNAMGWYRQAPGKERELVAAINSGGITNYADSVKGRFTISRDNAKNTVYLQMNSLKPEDTAVYYCNARQVLFGLYLRAYPFEYWGQGTQVTVSS", "polyreactivity (PSR sort gate)": "low polyreactivity"}, {"sequence": "QVQLVESGGGLVQAGGSLSLSCAASGRTFKPYAMGWYRQAPGKERELVAVITSNGSSTYYADSVKGRFTISRDNAKNTVYLQMNSLKPEDTAVYYCATKLTYTLTSGAYAYDYWGQGTQVTVSS", "polyreactivity (PSR sort gate)": "low polyreactivity"}, {"sequence": "QVQLVESGGGLVQAGGSLSLSCAASGRTFYTNAMGSSRQAPGKERELVAAISLRDVNTYYADSVKGRFTISRDNAKNTVYLQMNSLKPEDTAVYYCAARSRRRFDWGQGTQVTVSS", "polyreactivity (PSR sort gate)": "high polyreactivity"}, {"sequence": "QVQLVESGGGLVQAGGSLSLSCAASGSIFAYKAMGWYRQAPGKEREFVAVITRSDDSTYADSVKGRFTISRDNAKNNVYLQMNSLKPEDTAVYYCAVVANYVYSKYDYWGQGTQVTVSS", "polyreactivity (PSR sort gate)": "low polyreactivity"}, {"sequence": "QVQLVESGGGLVQAGGSLSLSCAASGSIFGIYAMGWYRQAAGKDRELVATINSRGTTNYADSVKGRFTISRYNAKNTVYLQMNSLKPEDTAVYYCAARFSTYRGKLKGYEYWGQGTQVTVSS", "polyreactivity (PSR sort gate)": "high polyreactivity"}, {"sequence": "QVQLVESGGGLVQAGGSLSLSCAASGSIFGSYAMGWYRKAPGKERELVAAITGSGVSTYYADSVKGRFTISRDNAKYTVYLQMNSLKPEDTAVYYCAAKRYYARSAYGSYFIVGYWGQGTQVTVSS", "polyreactivity (PSR sort gate)": "high polyreactivity"}]}]}
